Measurements published in patent US20260132182A1 (published 2026).
Starred links: 1 amine or outer side, 2 acyl side, 3 side chain; linkers in the order of their positions; H or OH if unused. Non-standard residues stand in square brackets, D forms with d. Groups on a side chain read outwards from the residue. *: point of attachment. C20 diacid = O=C(O)CCCCCCCCCCCCCCCCCCC(=O)*; C18 diacid = O=C(O)CCCCCCCCCCCCCCCCC(=O)*; C16 diacid = O=C(O)CCCCCCCCCCCCCCC(=O)*; γGlu = O=C(O)[C@H](CCC(=O)[*:2])N[*:1]; C14 diacid = O=C(O)CCCCCCCCCCCCC(=O)*; Desaminohistidyl = O=C(CCc1c[nH]cn1)*; εLys = N[C@@H](CCCCN[*:1])C(=O)[*:2]; Trx = NC[C@H]1CC[C@H](C(=O)O)CC1; AEEA = NCCOCCOCC(=O)O; Aib = CC(C)(N)C(=O)O

T1: human amylin-3 (a) receptor (human, UniProt P30988 25-474; O60896 24-148)
T1 sequence (looked up) 1: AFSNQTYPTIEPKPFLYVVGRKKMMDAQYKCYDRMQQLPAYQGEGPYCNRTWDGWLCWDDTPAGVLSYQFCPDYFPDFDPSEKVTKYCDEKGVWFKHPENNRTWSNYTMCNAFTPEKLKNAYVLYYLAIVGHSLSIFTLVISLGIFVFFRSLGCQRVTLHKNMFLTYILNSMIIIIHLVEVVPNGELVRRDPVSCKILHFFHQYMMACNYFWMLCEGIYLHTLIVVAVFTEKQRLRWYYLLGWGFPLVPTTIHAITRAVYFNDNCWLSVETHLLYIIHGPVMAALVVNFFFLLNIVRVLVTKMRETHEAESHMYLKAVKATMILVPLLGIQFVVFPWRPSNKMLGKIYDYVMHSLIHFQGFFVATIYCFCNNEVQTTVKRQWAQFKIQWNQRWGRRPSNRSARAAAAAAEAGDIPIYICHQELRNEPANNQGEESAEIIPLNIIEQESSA
T1 sequence (looked up) 2: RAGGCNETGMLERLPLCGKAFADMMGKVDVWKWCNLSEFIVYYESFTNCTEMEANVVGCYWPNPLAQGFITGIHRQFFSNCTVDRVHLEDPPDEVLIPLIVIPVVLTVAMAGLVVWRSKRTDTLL

B1: Compound 0417 (peptide)
peptide: H[Aib]EGTFTSK([AEEA-AEEA-γGlu-Trx-C20 diacid])VSSYLEEQAAREFIEWLVRGRGEASELSTAALGRLSAELHELATLPRTETGSGSP-NH2
B2: Compound 0431 (peptide)
peptide: HAEGTFTSDK([AEEA-AEEA-γGlu-Trx-C20 diacid])SSYLEEQAAREFIEWLVRGRGEASELSTAALGRLSAELHELATLPRTETGSGSP-NH2
B3: Compound 0433 (peptide)
peptide: HWEGTFTSDK([εLys-AEEA-AEEA-γGlu-Trx-C20 diacid])SSYLEEQAAREFIEWLVRGRGEASELSTAALGRLSAELHELATLPRTETGSGSP-NH2
B4: Compound 0434 (peptide)
peptide: HWEGTFTSDVSSYLEEK([εLys-AEEA-AEEA-γGlu-Trx-C20 diacid])AAREFIEWLVRGRGEASELSTAALGRLSAELHELATLPRTETGSGSP-NH2
B5: Compound 0435 (peptide)
peptide: HWEGTFTSDVSSYLEEQAAK([εLys-AEEA-AEEA-γGlu-Trx-C20 diacid])EFIEWLVRGRGEASELSTAALGRLSAELHELATLPRTETGSGSP-NH2
B6: Compound 0436 (peptide)
peptide: H[Aib]EGTFTSDVSSYLEEQAAKEFIEWLVRGRGEASELSTAALGRLSAELHELATLPRTETGSGSP-NH2
modifications: not fully specified (residue 20)
B7: Compound 0437 (peptide)
peptide: HWEGTFTSDVSSYLEEQAARK([εLys-AEEA-AEEA-γGlu-Trx-C20 diacid])FIEWLVRGRGEASELSTAALGRLSAELHELATLPRTETGSGSP-NH2
B8: Compound 0051 (peptide)
peptide: [Desaminohistidyl]AEGTFTSDVSSYLEEQAAREFIAWLVRGRK([AEEA-AEEA-γGlu-C18 diacid])EASELSTAALGRLSAELHELATLPRTETGSGSP-NH2
B9: Compound 0438 (peptide)
peptide: H[Aib]EGTFTSDVSSYLEEQAAREFIEWLVRGRKEASELSTAALGRLSAELHELATLPRTETGSGSP-NH2
modifications: not fully specified (residue 31)
B10: Compound 0439 (peptide)
peptide: H[Aib]EGTFTSDVSSYLEEQAARKFIEWLVRGRGEASELSTAALGRLSAELHELATLPRTETGSGSP-NH2
modifications: not fully specified (residue 21)
B11: Compound 0440 (peptide)
peptide: H[Aib]EGTFTSDK([AEEA-AEEA-γGlu-Trx-C20 diacid])SSYLEEQAAREFIEWLVRGRGEASELSTAALGRLSAELHELATLPRTETGSGSP-NH2
B12: Compound 0472 (peptide)
peptide: HAEGTFTSDVSSYLEEK([AEEA-AEEA-γGlu-C18 diacid])AAREFIEWLVRGRGEASELSTAALGRLSAELHELATLPRTETGSGSP-NH2
B13: Compound 0473 (peptide)
peptide: HWEGTFTSDVSSYLEEK([AEEA-AEEA-γGlu-C20 diacid])AAREFIEWLVRGRGEASELSTAALGRLSAELHELATLPRTETGSGSP-NH2
B14: Compound 0474 (peptide)
peptide: HAEGTFTSDVSSYLEEK([AEEA-AEEA-γGlu-C20 diacid])AAREFIEWLVRGRGEASELSTAALGRLSAELHELATLPRTETGSGSP-NH2
B15: Compound 0475 (peptide)
peptide: HAEGTFTSDK([AEEA-AEEA-γGlu-C16 diacid])SSYLEEK([AEEA-AEEA-γGlu-C16 diacid])AAREFIEWLVRGRGEASELSTAALGRLSAELHELATLPRTETGSGSP-NH2
B16: Compound 0482 (peptide)
peptide: HAEGTFTSDVSK([AEEA-AEEA-γGlu-C16 diacid])YLEEQAVREFIAK([AEEA-AEEA-γGlu-C16 diacid])LVRGRGGGEASELSTAALGRLSAELHELATLPRTETGSGSP-NH2
B17: Compound 0483 (peptide)
peptide: H[Aib]EGTFTSDVSK([AEEA-AEEA-γGlu-C16 diacid])YLEEQAVREFIAK([AEEA-AEEA-γGlu-C16 diacid])LVRGRGGGEASELSTAALGRLSAELHELATLPRTETGSGSP-NH2
B18: Compound 0484 (peptide)
peptide: H[Aib]EGTFTSDVSK([AEEA-AEEA-γGlu-C14 diacid])YLEEQAVREFIAK([AEEA-AEEA-γGlu-C14 diacid])LVRGRGGGEASELSTAALGRLSAELHELATLPRTETGSGSP-NH2
B19: Compound 0052 (peptide)
peptide: H[Aib]EGTFTSDVSSYLEGQAAK([AEEA-AEEA-γGlu-C18 diacid])EFIAWLVRGRGGGGGGGGGEASELSTAALGRLSAELHELATLPRTETGSGSP-NH2
B20: Compound 0502 (peptide)
peptide: H[Aib]EGTFTSDVSSYLEEQAAREFIAWLVRGRK([AEEA-AEEA-γGlu-C20 diacid])GGGGEASELSTAALGRLSAELHELATLPRTETGSGSP-NH2
B21: Compound 0503 (peptide)
peptide: H[Aib]EGTFTSDVSSYLEEQAAREFIEWLVRGRK([AEEA-AEEA-γGlu-Trx-C20 diacid])GGGGEASELSTAALGRLSAELHELATLPRTETGSGSP-NH2
B22: Compound 0504 (peptide)
peptide: H[Aib]EGTFTSDVSSYLEEQAAREFIAWLVRGRPK([AEEA-AEEA-γGlu-Trx-C20 diacid])GGGGEASELSTAALGRLSAELHELATLPRTETGSGSP-NH2

Legend:
[1] = target: T1, human amylin-3 (a) receptor; experiment: cell-based or functional assay
[2] = target: human GLP-1 receptor (human, UniProt P43220 24-463); experiment: cell-based or functional assay

Binder	Human AmyR3 potency [EC50 (pM)] [1]	Human GLP-1R potency [EC50 (pM)] [2]
B1	21 pM	97.8 pM
B2	11.9 pM	10.9 pM
B3	12.9 pM	30.7 pM
B4	13.9 pM	11.8 pM
B5	22.3 pM	92.4 pM
B6	12.3 pM	15.2 pM
B7	11.8 pM	12 pM
B8	19.5 pM	14.3 pM
B9	27.5 pM	11.8 pM
B10	10.7 pM	8.3 pM
B11	10.4 pM	5.7 pM
B12	24 pM	2.8 pM
B13	16.2 pM	3.1 pM
B14	21.8 pM	2.9 pM
B15	66.8 pM	70.4 pM
B16	31.8 pM	36.5 pM
B17	36.8 pM	33.7 pM
B18	32.5 pM	72.8 pM
B19	19.4 pM	17 pM
B20	9 pM	8.4 pM
B21	7.7 pM	6.5 pM
B22	6 pM	8.3 pM
